Data as given in the supplement of paper PMC6379048.
pEC50: −log10 of the molar value.

How the values were obtained:
Assay in all cases: EC50 of free RNA motif oligo competing protein binding to immobilised probe
ELAVL2 = ELAVL2 (UniProt Q12926)
In short: (§1)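 To obtain EC50, data were fitted with a four-parameter log-logistic model; Kd was then EC50 multiplied by a protein-dependent depletion factor. Beforehand, free RNA oligos (0 nM to 30 μM) were pre-incubated with HEK293-FT lysate (2.5 mg protein/well) for 1 h at 4°C. The lysate then spent 30 min at 4°C with the same 5′-amino-C6 oligos coupled to NHS-Sepharose beads, and bound proteins were quantified by label-free LC-MS/MS, normalised to the control.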

MEX3A = target: T1, MEX3A (UniProt A1L020)
T1 sequence: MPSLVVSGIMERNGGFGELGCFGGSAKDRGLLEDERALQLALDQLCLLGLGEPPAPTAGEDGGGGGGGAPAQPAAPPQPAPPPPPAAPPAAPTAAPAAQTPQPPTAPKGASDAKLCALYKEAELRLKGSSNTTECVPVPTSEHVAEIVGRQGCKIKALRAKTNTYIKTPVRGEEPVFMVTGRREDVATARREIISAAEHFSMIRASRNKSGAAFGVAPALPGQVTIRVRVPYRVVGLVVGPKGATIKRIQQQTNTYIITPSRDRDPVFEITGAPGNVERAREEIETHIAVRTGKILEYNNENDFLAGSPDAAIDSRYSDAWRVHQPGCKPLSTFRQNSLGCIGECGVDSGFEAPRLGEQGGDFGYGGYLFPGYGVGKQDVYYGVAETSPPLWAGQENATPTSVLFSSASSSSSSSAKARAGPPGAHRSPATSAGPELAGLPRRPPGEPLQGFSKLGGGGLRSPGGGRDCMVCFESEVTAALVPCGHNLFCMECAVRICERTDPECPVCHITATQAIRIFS
In short: as §1

HNRNPDL = target: T2, HNRNPDL (UniProt O14979)
T2 sequence: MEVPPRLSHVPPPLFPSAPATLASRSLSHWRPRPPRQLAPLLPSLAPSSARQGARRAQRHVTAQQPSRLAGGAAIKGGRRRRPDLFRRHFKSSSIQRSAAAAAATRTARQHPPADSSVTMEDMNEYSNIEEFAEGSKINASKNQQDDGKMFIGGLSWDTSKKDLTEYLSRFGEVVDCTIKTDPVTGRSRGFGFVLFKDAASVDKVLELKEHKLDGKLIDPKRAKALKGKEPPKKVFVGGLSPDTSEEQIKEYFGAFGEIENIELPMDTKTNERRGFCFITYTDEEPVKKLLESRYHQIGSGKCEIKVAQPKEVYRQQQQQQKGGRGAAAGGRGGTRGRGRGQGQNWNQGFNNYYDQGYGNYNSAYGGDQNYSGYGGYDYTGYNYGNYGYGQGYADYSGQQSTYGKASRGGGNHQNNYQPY
In short: as §1

LSM2 = target: T3, LSM2 (UniProt Q9Y333)
T3 sequence: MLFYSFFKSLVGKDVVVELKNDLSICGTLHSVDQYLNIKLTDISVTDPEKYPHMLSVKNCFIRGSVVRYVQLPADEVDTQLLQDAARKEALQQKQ
In short: as §1

KHSRP = target: T4, KHSRP (UniProt Q92945)
T4 sequence: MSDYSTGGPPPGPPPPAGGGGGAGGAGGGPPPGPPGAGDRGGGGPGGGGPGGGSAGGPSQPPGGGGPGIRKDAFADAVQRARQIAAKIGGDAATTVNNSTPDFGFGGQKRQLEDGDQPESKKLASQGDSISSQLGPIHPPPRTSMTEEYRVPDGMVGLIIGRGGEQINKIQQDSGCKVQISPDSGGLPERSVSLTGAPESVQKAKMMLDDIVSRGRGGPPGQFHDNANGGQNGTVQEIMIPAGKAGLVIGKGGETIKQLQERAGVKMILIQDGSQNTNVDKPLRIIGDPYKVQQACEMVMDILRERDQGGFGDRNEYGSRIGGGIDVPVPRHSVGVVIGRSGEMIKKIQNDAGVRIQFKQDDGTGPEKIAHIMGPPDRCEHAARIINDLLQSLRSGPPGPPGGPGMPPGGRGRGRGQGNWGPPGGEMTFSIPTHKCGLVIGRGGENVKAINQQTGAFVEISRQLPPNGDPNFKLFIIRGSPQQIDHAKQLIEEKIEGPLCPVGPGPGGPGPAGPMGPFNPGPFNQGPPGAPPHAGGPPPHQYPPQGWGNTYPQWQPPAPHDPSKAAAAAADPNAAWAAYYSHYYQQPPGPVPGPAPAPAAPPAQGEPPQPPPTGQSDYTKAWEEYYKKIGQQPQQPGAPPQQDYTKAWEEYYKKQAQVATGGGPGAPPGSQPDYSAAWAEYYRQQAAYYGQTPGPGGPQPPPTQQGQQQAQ
In short: as §1

DAZAP1 = target: T5, DAZAP1 (UniProt Q96EP5)
T5 sequence: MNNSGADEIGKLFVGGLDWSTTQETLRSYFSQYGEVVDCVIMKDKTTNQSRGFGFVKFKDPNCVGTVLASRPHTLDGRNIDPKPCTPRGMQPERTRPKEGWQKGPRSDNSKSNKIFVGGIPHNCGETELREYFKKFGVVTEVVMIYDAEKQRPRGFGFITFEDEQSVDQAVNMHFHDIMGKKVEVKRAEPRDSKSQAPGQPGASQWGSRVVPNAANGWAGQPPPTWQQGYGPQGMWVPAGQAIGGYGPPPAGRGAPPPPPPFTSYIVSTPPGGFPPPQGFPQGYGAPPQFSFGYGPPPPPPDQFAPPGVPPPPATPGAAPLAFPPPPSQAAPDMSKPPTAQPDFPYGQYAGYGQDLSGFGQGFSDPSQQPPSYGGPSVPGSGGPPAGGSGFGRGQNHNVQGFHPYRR
In short: as §1

RPS16 = RPS16 (UniProt P62249)
In short: as §1

Chain of ELAVL2 (Q12926 whole entry): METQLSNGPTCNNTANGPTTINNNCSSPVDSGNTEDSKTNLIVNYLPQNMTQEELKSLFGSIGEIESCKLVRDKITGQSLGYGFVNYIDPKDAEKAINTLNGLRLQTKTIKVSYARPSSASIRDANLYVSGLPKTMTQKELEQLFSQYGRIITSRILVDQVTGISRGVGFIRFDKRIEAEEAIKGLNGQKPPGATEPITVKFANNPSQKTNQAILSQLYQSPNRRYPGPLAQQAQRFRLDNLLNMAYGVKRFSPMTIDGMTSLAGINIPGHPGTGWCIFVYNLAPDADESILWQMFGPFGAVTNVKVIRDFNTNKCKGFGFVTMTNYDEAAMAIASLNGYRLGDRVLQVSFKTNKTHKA

Sequence | pEC50 (ELAVL2) | pEC50 (MEX3A) | pEC50 (HNRNPDL) | pEC50 (LSM2) | pEC50 (KHSRP) | pEC50 (DAZAP1) | pEC50 (RPS16)
UAUUUAU | 5.42 | 6.00 | 5.46 | 6.11 | 5.76 | 5.91 | 
AAUAAA | 5.01 | 5.83 | 5.68 | 6.50 | 5.65 | 5.91 | 6.12
CUGUCCU |  |  |  |  |  |  | 6.76
